From paper PMC6415871 come the findings set out here.

Assay [1] concerns the target PCV2-His-ΔN45 capsid protein (porcine circovirus type 2) (UniProt O56129). The assay can be described thus: crystal structure; PCV2-His-ΔN45 at ~12 mg/ml, crystals from 2 M ammonium sulfate, 0.1 M citric acid pH 4.6; one icosahedral particle per asymmetric unit; 2.8 Å.
For assay [2], the target named is full-length PCV2 capsid protein (porcine circovirus type 2) (UniProt O56129). The assay can be described thus: cryo-EM structure; in vitro assembled full-length PCV2 VLP, 300 kV Titan Krios, icosahedral reconstruction at 4.12 Å.

The stoichiometry N is the number of molecules, sites or subunits per partner or assembly. Substance “PCV2-His-ΔN45 capsid protein (from UniProt O56129 45-233) (domain or fragment)” yielded a stoichiometry N in assay [1] of 60 subunits.

In turn, “full-length PCV2 capsid protein (from UniProt O56129 1-233) (natural protein)” returned a stoichiometry N in assay [2] of 60 subunits.
